The target of assay [1] is HEL-Dylight488 conjugate (hen egg lysozyme labeled with Dylight488) (chicken) (UniProt P00698). The assay can be described thus: microfluidic fluorescence bead assay; mAb captured on rabbit anti-mouse pAb Protein A beads, labeled antigen in flow.
Assay [2] concerns the target HEL-Dylight633 conjugate (hen egg lysozyme labeled with Dylight633) (chicken) (UniProt P00698). The assay can be described thus: microfluidic fluorescence bead assay; compared with D1.3 mAb on HEL.
Assay [3] has the same target. Nature of the assay: microfluidic fluorescence bead assay; mAb captured on rabbit anti-mouse pAb Protein A beads, labeled antigen in flow.

A word on the Kd: it is a measure of binding affinity in units of concentration. In assay [1], “D1.3 mouse monoclonal antibody (mAb) to lysozyme” returned a dissociation constant Kd of 1.2 nM.

By koff is commonly meant the rate constant with which the complex falls apart. Read a low koff as a long-lived complex. One may read the kon as the second-order rate constant of association. In assay [2], “HyHEL-5 mouse monoclonal antibody to lysozyme” had a fold larger association rate constant than D1.3 mAb of 4 fold, a fold smaller dissociation rate constant than D1.3 mAb of 10 fold and a fold smaller equilibrium dissociation constant than D1.3 of 40 fold. In assay [3], this substance gave a Kd of 0.03 nM, a koff of 0.000169 s⁻¹ and a kon of 5.75e+06 M⁻¹ s⁻¹.

The values above are taken from patent US20120015347A1.
